One experiment addresses T1, Goat anti-Human Kappa.
T1 construct: Positive control; also called biotinylated goat anti-human kappa light chain
Description: ELISA; positive control. Put shortly: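 mAb binding by ELISA; antigens: hu ACVR2A, mu ACVR2A; pos ctrl biotinylated goat anti-hu kappa LC; neg ctrl hu Fc.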
A general note: ELISA stands for enzyme-linked immunosorbent assay.

In another experiment the target is Mouse ACVR2A (mouse, UniProt P27038 20-135, limits assumed). In words: ELISA. Put shortly:
(§1)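 Binding signal was read by ELISA after ACVR2A-specific monoclonal antibodies were tested against human ACVR2A and mouse ACVR2A, with human Fc as the negative control.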

A further experiment concerns the target T2, Human ACVR2A (human, UniProt P27037 20-135, limits assumed).
T2 construct: also called activin receptor, type II A
Description: ELISA. The gist of the method:
as §1
Also: test concentration or dose not given here.

T2 sequence (P27037 20-135 limits assumed): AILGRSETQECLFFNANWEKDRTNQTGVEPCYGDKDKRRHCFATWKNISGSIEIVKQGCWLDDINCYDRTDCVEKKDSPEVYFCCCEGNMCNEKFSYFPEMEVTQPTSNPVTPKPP
Chain of Mouse ACVR2A (P27038 20-135 limits assumed): as the sequence (P27037 20-135 limits assumed) above, with K20R, V73I counted along it

B1: 370_F01 (antibody, V domains shown)
VH: EVQLLESGGGLVQPGGSLRLSCAASGFTFSSYGMNWVRQAPGKGLEWVSNINYNGGYTSYADSVKGRFTISRDNSKNTLYLQMNSLRAEDTAVYYCARGATWHDTHLDYWGQGTLVTVSS
VL: DIQMTQSPSSLSASVGDRVTITCRASQSIVSYLNWYQQKPGKAPKLLIYAATSRASGVPSRFSGSGSGTDFTLTISSLQPEDFATYYCQQSYDSPLTFGGGTKVEIK
notes: VH/VL only
For the molecule B1, the optical density with Goat anti-Human Kappa is 3.67 OD; in the experiment with Mouse ACVR2A it was 3.14 OD; with Human ACVR2A, 3 OD.

B2: 370_F12 (antibody, V domains shown)
VH: EVQLLESGGGLVQPGGSLRLSCAASGFTFSDYSMNWVRQAPGKGLEWVANINYNGGYTGYADSVKGRFTISRDNSKNTLYLQMNSLRAEDTAVYYCARGATWHDTHLDYWGQGTLVTVSS
VL: DIQMTQSPSSLSASVGDRVTITCRASQSILSYLNWYQQKPGKAPKLLIYAASSLQSGVPSRFSGSGSGTDFTLTISSLQPEDFATYYCQQSYDSPLTFGGGTKVEIK
notes: VH/VL only
As for B2, the optical density with Goat anti-Human Kappa came out at 3.64 OD; with Mouse ACVR2A, 3.57 OD; with Human ACVR2A, 3.55 OD.

B3: 371_E08 (antibody, V domains shown)
VH: EVQLLESGGGLVQPGGSLRLSCAASGFTFSSYSMNWVRQAPGKGLEWVSNINYNSGYKSYADSVKGRFTISRDNSKNTLYLQMNSLRAEDTAVYYCARGATWHDTHLDYWGQGTLVTVSS
VL: DIQMTQSPSSLSASVGDRVTITCRASQSIVSYVNWYQQKPGKAPKLVIYAATSRHSGVPSRFSGSGSGTDFTLTISSLQPEDFATYYCQQSYDLPLTFGGGTKVEIK
notes: VH/VL only
As to B3, the optical density in the experiment with Goat anti-Human Kappa is 2.64 OD; with Mouse ACVR2A, 2.27 OD; with Human ACVR2A it was 2.11 OD.

B4: 371_H11 (antibody, V domains shown)
VH: EVQLLESGGGLVQPGGSLRLSCAASGFTFSSYSMNWVRQAPGKGLEWVSGINYNGGYKGYADSVKGRFTISRDNSKNTLYLQMNSLRAEDTAVYYCARGATWHDTHLDYWGQGTLVTVSS
VL: DIQMTQSPSSLSASVGDRVTITCRASQSILTYLNWYQQKPGKAPKLLIYATTSRHSGVPSRFSGSGSGTDFTLTISSLQPEDFATYYCQQSYESPLTFGGGTKVEIK
notes: VH/VL only
Turning to B4, the optical density with Goat anti-Human Kappa came to 3.6 OD; in the experiment with Mouse ACVR2A, 3.12 OD; with Human ACVR2A, 2.89 OD.

B5: 371_E05 (antibody, V domains shown)
VH: EVQLLESGGGLVQPGGSLRLSCAASGFTFSSYSMNWVRQAPGKGLEWVAGINYNGGYTSYADSVKGRFTISRDNSKNTLYLQMNSLRAEDTAVYYCARGATWHDTHLDYWGQGTLVTVSS
VL: DIQMTQSPSSLSASVGDRVTITCRASQSIISYLNWYQQKPGKAPKLVIYAATSRASGVPSRFSGSGSGTDFTLTISSLQPEDFATYYCQQSYSSPLTFGGGTKVEIK
notes: VH/VL only
For the molecule B5, the optical density was determined as 3.45 OD in the experiment with Goat anti-Human Kappa, 3.18 OD in the experiment with Mouse ACVR2A and 2.99 OD with Human ACVR2A.

B6: 371_E09 (antibody, V domains shown)
VH: EVQLLESGGGLVQPGGSLRLSCAASGFTFSDYSMNWVRQAPGKGLEWVSGINYNSGYTSYADSVKGRFTISRDNSKNTLYLQMNSLRAEDTAVYYCARGATWHDTHLDYWGQGTLVTVSS
VL: DIQMTQSPSSLSASVGDRVTITCRASQSILTYLNWYQQKPGKAPKLLIYAATSRASGVPSRFSGSGSGTDFTLTISSLQPEDFATYYCQQSYNSPLTFGGGTKVEIK
notes: VH/VL only
Regarding B6, the values for the optical density in the experiment with Goat anti-Human Kappa, with Mouse ACVR2A and with Human ACVR2A were 3.15 OD, 2.28 OD and 2.08 OD, respectively.

B7: 371_C06 (antibody, V domains shown)
VH: EVQLLESGGGLVQPGGSLRLSCAASGFTFSSYSMNWVRQAPGKGLEWVSSINYNGGYTSYADSVKGRFTISRDNSKNTLYLQMNSLRAEDTAVYYCARGATWHDTHLDYWGQGTLVTVSS
VL: DIQMTQSPSSLSASVGDRVTITCRASQSISSYLNWYQQKPGKAPKLLIYAVTSRASGVPSRFSGSGSGTDFTLTISSLQPEDFATYYCQQSYDLPLTFGGGTKVEIK
notes: VH/VL only
In the case of B7, the optical density in the experiment with Goat anti-Human Kappa was 3.44 OD; in the experiment with Mouse ACVR2A, 3.01 OD; in the experiment with Human ACVR2A it was 2.49 OD.

B8: 370_H06 (antibody, V domains shown)
VH: EVQLLESGGGLVQPGGSLRLSCAASGFTFDDYSMNWVRQAPGKGLEWVANINYNGGYTGYADSVKGRFTISRDNSKNTLYLQMNSLRAEDTAVYYCARGATWHDTHLDYWGQGTLVTVSS
VL: DIQMTQSPSSLSASVGDRVTITCRASQSILTYLNWYQQKPGKAPKLLIYAATSRASGVPSRFSGSGSGTDFTLTISSLQPEDFATYYCQQSYETPLTFGGGTKVEIK
notes: VH/VL only
For the molecule B8, the optical density amounted to 3.51 OD in the experiment with Goat anti-Human Kappa, 3.39 OD in the experiment with Mouse ACVR2A and 3.22 OD with Human ACVR2A.

B9: 371_E12 (antibody, V domains shown)
VH: EVQLLESGGGLVQPGGSLRLSCAASGFTFDSYSMNWVRQAPGKGLEWVSGINYNSGYKSYADSVKGRFTISRDNSKNTLYLQMNSLRAEDTAVYYCARGATWHDTHLDYWGQGTLVTVSS
VL: DIQMTQSPSSLSASVGDRVTITCRASQSILSYLNWYQQKPGKAPKLLIYAATSLASGVPSRFSGSGSGTDFTLTISSLQPEDFATYYCQQSYDTPLTFGGGTKVEIK
notes: VH/VL only
For B9, the figures for the optical density with Goat anti-Human Kappa, with Mouse ACVR2A and in the experiment with Human ACVR2A were 3.62 OD, 2.99 OD and 3.09 OD, respectively.

B10: 371_G01 (antibody, V domains shown)
VH: EVQLLESGGGLVQPGGSLRLSCAASGFTFSDYSMNWVRQAPGKGLEWVSNINYNGGYTSYADSVKGRFTISRDNSKNTLYLQMNSLRAEDTAVYYCARGATWHDTHLDYWGQGTLVTVSS
VL: DIQMTQSPSSLSASVGDRVTITCRASQSILTYLNWYQQKPGKAPKLLIYAATSLASGVPSRFSGSGSGTDFTLTISSLQPEDFATYYCQQSYDLPLTFGGGTKVEIK
notes: VH/VL only
B10: the optical density with Goat anti-Human Kappa worked out at 1.79 OD; in the experiment with Mouse ACVR2A, 2.24 OD; in the experiment with Human ACVR2A it was 2.01 OD.

B11: 370_F02 (antibody, V domains shown)
VH: EVQLLESGGGLVQPGGSLRLSCAASGFTFDSYGMNWVRQAPGKGLEWVANINYNGGYTGYADSVKGRFTISRDNSKNTLYLQMNSLRAEDTAVYYCARGATWHDTHLDYWGQGTLVTVSS
VL: DIQMTQSPSSLSASVGDRVTITCRASQSILSYLNWYQQKPGKAPKLLIYAVTSRHSGVPSRFSGSGSGTDFTLTISSLQPEDFATYYCQQSYDSPLTFGGGTKVEIK
notes: VH/VL only
Take B11: the optical density with Goat anti-Human Kappa came to 3.63 OD; with Mouse ACVR2A, 2.89 OD; in the experiment with Human ACVR2A, 2.68 OD.

B12: 371_F03 (antibody, V domains shown)
VH: EVQLLESGGGLVQPGGSLRLSCAASGFTFSSYSMNWVRQAPGKGLEWVSGINYNGGYTSYADSVKGRFTISRDNSKNTLYLQMNSLRAEDTAVYYCARGATWHDTHLDYWGQGTLVTVSS
VL: DIQMTQSPSSLSASVGDRVTITCRASQSIITYLNWYQQKPGKAPKLLIYAATSLHSGVPSRFSGSGSGTDFTLTISSLQPEDFATYYCQQSYDNPLTFGGGTKVEIK
notes: VH/VL only
As to B12, the optical density with Goat anti-Human Kappa stood at 1.82 OD; with Mouse ACVR2A, 1.3 OD; in the experiment with Human ACVR2A it was 1.19 OD.

B13: 370_G08 (antibody, V domains shown)
VH: EVQLLESGGGLVQPGGSLRLSCAASGFTFSDYSMNWVRQAPGKGLEWVAGINYNGGYTGYADSVKGRFTISRDNSKNTLYLQMNSLRAEDTAVYYCARGATWHDTHLDYWGQGTLVTVSS
VL: DIQMTQSPSSLSASVGDRVTITCRASQSILTYLNWYQQKPGKAPKLVIYAATSRASGVPSRFSGSGSGTDFTLTISSLQPEDFATYYCQQSYESPLTFGGGTKVEIK
notes: VH/VL only
Regarding B13, the figures for the optical density in the experiment with Goat anti-Human Kappa, with Mouse ACVR2A and with Human ACVR2A were 3.56 OD, 3.33 OD and 3.21 OD, respectively.

B14: 371_C07 (antibody, V domains shown)
VH: EVQLLESGGGLVQPGGSLRLSCAASGFTFDSYGMNWVRQAPGKGLEWVSNINYNGGYTGYADSVKGRFTISRDNSKNTLYLQMNSLRAEDTAVYYCARGATWHDTALDYWGQGTLVTVSS
VL: DIQMTQSPSSLSASVGDRVTITCRASQSILSYLNWYQQKPGKAPKLLIYAATSLASGVPSRFSGSGSGTDFTLTISSLQPEDFATYYCQQSYDTPLTFGGGTKVEIK
notes: VH/VL only
With B14, the optical density with Goat anti-Human Kappa came out at 3.36 OD; with Mouse ACVR2A it was 1.45 OD; in the experiment with Human ACVR2A, 1.39 OD.

B15: 370_H04 (antibody, V domains shown)
VH: EVQLLESGGGLVQPGGSLRLSCAASGFTFSSYSMNWVRQAPGKGLEWVSNINYNGGYTGYADSVKGRFTISRDNSKNTLYLQMNSLRAEDTAVYYCARGATWHDTHLDYWGQGTLVTVSS
VL: DIQMTQSPSSLSASVGDRVTITCRASQSILSYVNWYQQKPGKAPKLLIYAATSRASGVPSRFSGSGSGTDFTLTISSLQPEDFATYYCQQSYDLPLTFGGGTKVEIK
notes: VH/VL only
For the molecule B15, the results for the optical density with Goat anti-Human Kappa, in the experiment with Mouse ACVR2A and with Human ACVR2A were 3.62 OD, 3.56 OD and 3.48 OD, respectively.

B16: 371_F09 (antibody, V domains shown)
VH: EVQLLESGGGLVQPGGSLRLSCAASGFTFSSYSMNWVRQAPGKGLEWVAGINYNGGYTSYADSVKGRFTISRDNSKNTLYLQMNSLRAEDTAVYYCARGATWHDTHLDYWGQGTLVTVSS
VL: DIQMTQSPSSLSASVGDRVTITCRASQSILTYLNWYQQKPGKAPKLLIYAATSRASGVPSRFSGSGSGTDFTLTISSLQPEDFATYYCQQSYDNPLTFGGGTKVEIK
notes: VH/VL only
On to B16, for which the optical density turned out to be 3.6 OD in the experiment with Goat anti-Human Kappa, 3.57 OD in the experiment with Mouse ACVR2A and 3.37 OD with Human ACVR2A.

B17: 371_B01 (antibody, V domains shown)
VH: EVQLLESGGGLVQPGGSLRLSCAASGFTFDSYSMNWVRQAPGKGLEWVSNINYNSGYTGYADSVKGRFTISRDNSKNTLYLQMNSLRAEDTAVYYCARGATWHDTHLDYWGQGTLVTVSS
VL: DIQMTQSPSSLSASVGDRVTITCRASQSILSYVNWYQQKPGKAPKLLIYAATSLASGVPSRFSGSGSGTDFTLTISSLQPEDFATYYCQQSYDLPLTFGGGTKVEIK
notes: VH/VL only
Turning to B17, the figures for the optical density in the experiment with Goat anti-Human Kappa, with Mouse ACVR2A and with Human ACVR2A were 3.58 OD, 3.27 OD and 3.26 OD, respectively.

(Values after US20210380703A1 (RIGEL PHARMACEUTICALS, published 2021).)
